Test results taken from the supplement of paper PMC9112550, “Optimization of the antimicrobial peptide Bac7 by deep mutational scanning” (BMC Biology, 2022).
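Note: peptides expressed intracellularly from a pBAD plasmid library in pooled LB shake-flask culture, induced with 0.3% L-arabinose, DNA abundance read by NGS, three biological replicates, DESeq2 with apeglm shrinkage.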

The sequences below were run on Escherichia coli TOP10 (assay: shrunken log2 fold change of peptide-encoding DNA abundance (4.5 h post-induction vs induction); higher = less antimicrobial activity (less host growth inhibition)). Settings: time post-induction: 4.5 h; library: site-saturation at positions 5, 18, 19, 20.
RRIRCRPPRLPRPRPRPPWIPRP was tested, and the “shrunken log2 fold change” value was -0.209.
In the case of RRIRKRPPRLPRPRPRPQAEPRP, the “shrunken log2 fold change” value is reported as 0.0754.
With RRIRARPPRLPRPRPRPRATPRP the “shrunken log2 fold change” value was 0.581.
RRIRARPPRLPRPRPRPWMAPRP was tested, and the “shrunken log2 fold change” value was 0.0631.
In the case of RRIRSRPPRLPRPRPRPYADPRP, the “shrunken log2 fold change” value is reported as -0.179.
With RRIRVRPPRLPRPRPRPTRCPRP the “shrunken log2 fold change” value was 0.404.
In the case of RRIRYRPPRLPRPRPRPYWDPRP, the “shrunken log2 fold change” value is reported as -0.483.
With RRIRIRPPRLPRPRPRPTTKPRP the “shrunken log2 fold change” value was -0.664.
With RRIRCRPPRLPRPRPRPWFVPRP the “shrunken log2 fold change” value was -0.629.
With RRIRPRPPRLPRPRPRPNLCPRP the “shrunken log2 fold change” value was 0.138.
In the case of RRIRWRPPRLPRPRPRPEQQPRP, the “shrunken log2 fold change” value is reported as 1.39.
In the case of RRIRWRPPRLPRPRPRPGAPPRP, the “shrunken log2 fold change” value is reported as 0.641.
RRIRERPPRLPRPRPRPRFCPRP was tested, and the “shrunken log2 fold change” value was -0.0399.
RRIRQRPPRLPRPRPRPCYYPRP was tested, and the “shrunken log2 fold change” value was -0.265.
RRIRCRPPRLPRPRPRPHYWPRP was tested, and the “shrunken log2 fold change” value was -0.783.
In the case of RRIRARPPRLPRPRPRPGIRPRP, the “shrunken log2 fold change” value is reported as 0.475.
For RRIRSRPPRLPRPRPRPCYQPRP, the “shrunken log2 fold change” value was 0.0321.
For RRIRARPPRLPRPRPRPSSPPRP, the “shrunken log2 fold change” value was 0.0282.
For RRIRRRPPRLPRPRPRPEYTPRP, the “shrunken log2 fold change” value was 0.166.
With RRIRYRPPRLPRPRPRPSARPRP the “shrunken log2 fold change” value was -0.137.
With RRIRIRPPRLPRPRPRPESPPRP the “shrunken log2 fold change” value was -0.135.
RRIRWRPPRLPRPRPRPDDRPRP was tested, and the “shrunken log2 fold change” value was 0.171.
With RRIRNRPPRLPRPRPRPFGRPRP the “shrunken log2 fold change” value was -0.0535.
In the case of RRIRPRPPRLPRPRPRPCQIPRP, the “shrunken log2 fold change” value is reported as -0.0156.
RRIRARPPRLPRPRPRPECEPRP was tested, and the “shrunken log2 fold change” value was 0.0705.
RRIRQRPPRLPRPRPRPKPAPRP was tested, and the “shrunken log2 fold change” value was 0.357.
RRIRYRPPRLPRPRPRPGIGPRP was tested, and the “shrunken log2 fold change” value was -0.659.
RRIRARPPRLPRPRPRPSKWPRP was tested, and the “shrunken log2 fold change” value was -0.101.
RRIRSRPPRLPRPRPRPVFCPRP was tested, and the “shrunken log2 fold change” value was -0.024.
For RRIRSRPPRLPRPRPRPQCSPRP, the “shrunken log2 fold change” value was -0.0935.
In the case of RRIRKRPPRLPRPRPRPFEVPRP, the “shrunken log2 fold change” value is reported as -0.0185.
In the case of RRIRNRPPRLPRPRPRPWIWPRP, the “shrunken log2 fold change” value is reported as -0.151.
For RRIRARPPRLPRPRPRPIHAPRP, the “shrunken log2 fold change” value was 0.0915.
In the case of RRIRSRPPRLPRPRPRPADGPRP, the “shrunken log2 fold change” value is reported as 0.218.
With RRIRFRPPRLPRPRPRPSNYPRP the “shrunken log2 fold change” value was -0.396.
In the case of RRIRHRPPRLPRPRPRPFEQPRP, the “shrunken log2 fold change” value is reported as -0.283.
RRIRTRPPRLPRPRPRPYWIPRP was tested, and the “shrunken log2 fold change” value was -0.0377.
With RRIRVRPPRLPRPRPRPLMWPRP the “shrunken log2 fold change” value was 0.157.
In the case of RRIRGRPPRLPRPRPRPCIHPRP, the “shrunken log2 fold change” value is reported as 0.00637.
In the case of RRIRCRPPRLPRPRPRPLKVPRP, the “shrunken log2 fold change” value is reported as -0.284.
RRIRDRPPRLPRPRPRPQKMPRP was tested, and the “shrunken log2 fold change” value was -0.0885.
With RRIRERPPRLPRPRPRPPVNPRP the “shrunken log2 fold change” value was 0.148.
With RRIRCRPPRLPRPRPRPQDLPRP the “shrunken log2 fold change” value was -0.472.
With RRIRCRPPRLPRPRPRPLDYPRP the “shrunken log2 fold change” value was -0.75.
With RRIRGRPPRLPRPRPRPPGYPRP the “shrunken log2 fold change” value was 0.737.
In the case of RRIRMRPPRLPRPRPRPQQAPRP, the “shrunken log2 fold change” value is reported as 0.0303.
For RRIRRRPPRLPRPRPRPVYVPRP, the “shrunken log2 fold change” value was -0.198.
In the case of RRIRFRPPRLPRPRPRPHQMPRP, the “shrunken log2 fold change” value is reported as -0.037.
In the case of RRIRARPPRLPRPRPRPDDWPRP, the “shrunken log2 fold change” value is reported as 1.12.
RRIRWRPPRLPRPRPRPCAVPRP was tested, and the “shrunken log2 fold change” value was 0.198.
RRIRPRPPRLPRPRPRPKYDPRP was tested, and the “shrunken log2 fold change” value was -0.612.
For RRIRHRPPRLPRPRPRPQMRPRP, the “shrunken log2 fold change” value was 0.209.
In the case of RRIRSRPPRLPRPRPRPGLKPRP, the “shrunken log2 fold change” value is reported as 0.14.
For RRIRFRPPRLPRPRPRPLRHPRP, the “shrunken log2 fold change” value was 0.353.
For RRIRWRPPRLPRPRPRPPNQPRP, the “shrunken log2 fold change” value was 0.363.
For RRIRTRPPRLPRPRPRPIICPRP, the “shrunken log2 fold change” value was -0.121.
For RRIRARPPRLPRPRPRPHQQPRP, the “shrunken log2 fold change” value was 0.33.
For RRIRMRPPRLPRPRPRPTPEPRP, the “shrunken log2 fold change” value was 0.713.
With RRIRLRPPRLPRPRPRPIDYPRP the “shrunken log2 fold change” value was -0.0867.
With RRIRQRPPRLPRPRPRPCKQPRP the “shrunken log2 fold change” value was 0.0108.
RRIRCRPPRLPRPRPRPPGAPRP was tested, and the “shrunken log2 fold change” value was 0.678.
For RRIRMRPPRLPRPRPRPHSAPRP, the “shrunken log2 fold change” value was 0.283.
For RRIRRRPPRLPRPRPRPAGHPRP, the “shrunken log2 fold change” value was 0.187.
RRIRNRPPRLPRPRPRPDNQPRP was tested, and the “shrunken log2 fold change” value was -0.323.
With RRIRLRPPRLPRPRPRPICEPRP the “shrunken log2 fold change” value was 0.0628.
With RRIRYRPPRLPRPRPRPVAPPRP the “shrunken log2 fold change” value was -0.0629.
With RRIRERPPRLPRPRPRPREGPRP the “shrunken log2 fold change” value was 0.46.
With RRIRWRPPRLPRPRPRPGHGPRP the “shrunken log2 fold change” value was 0.214.
With RRIRERPPRLPRPRPRPNGWPRP the “shrunken log2 fold change” value was -0.00266.
For RRIRKRPPRLPRPRPRPGTAPRP, the “shrunken log2 fold change” value was 0.625.
RRIRIRPPRLPRPRPRPSQRPRP was tested, and the “shrunken log2 fold change” value was -0.466.
For RRIRGRPPRLPRPRPRPIDIPRP, the “shrunken log2 fold change” value was -0.0347.
With RRIRNRPPRLPRPRPRPMRHPRP the “shrunken log2 fold change” value was -0.18.
With RRIRARPPRLPRPRPRPDDLPRP the “shrunken log2 fold change” value was -0.00225.
RRIRCRPPRLPRPRPRPFKEPRP was tested, and the “shrunken log2 fold change” value was -0.342.
With RRIRCRPPRLPRPRPRPNTWPRP the “shrunken log2 fold change” value was -0.539.
For RRIRLRPPRLPRPRPRPSSIPRP, the “shrunken log2 fold change” value was -0.245.
With RRIRFRPPRLPRPRPRPKPDPRP the “shrunken log2 fold change” value was 0.463.
For RRIRDRPPRLPRPRPRPESLPRP, the “shrunken log2 fold change” value was 1.01.
For RRIRWRPPRLPRPRPRPQECPRP, the “shrunken log2 fold change” value was -0.0185.
In the case of RRIRARPPRLPRPRPRPFFPPRP, the “shrunken log2 fold change” value is reported as 0.527.
For RRIRLRPPRLPRPRPRPMLTPRP, the “shrunken log2 fold change” value was 0.0606.
With RRIRERPPRLPRPRPRPSKNPRP the “shrunken log2 fold change” value was -0.895.
For RRIRQRPPRLPRPRPRPNYGPRP, the “shrunken log2 fold change” value was -0.299.
In the case of RRIRSRPPRLPRPRPRPVFWPRP, the “shrunken log2 fold change” value is reported as 0.365.
In the case of RRIRRRPPRLPRPRPRPQVMPRP, the “shrunken log2 fold change” value is reported as 0.0874.
RRIRRRPPRLPRPRPRPNFEPRP was tested, and the “shrunken log2 fold change” value was 0.413.
In the case of RRIRARPPRLPRPRPRPLEWPRP, the “shrunken log2 fold change” value is reported as -0.0062.
For RRIRHRPPRLPRPRPRPVIVPRP, the “shrunken log2 fold change” value was -0.204.
In the case of RRIRFRPPRLPRPRPRPHEIPRP, the “shrunken log2 fold change” value is reported as -0.0536.
In the case of RRIRRRPPRLPRPRPRPMLYPRP, the “shrunken log2 fold change” value is reported as -0.0417.
In the case of RRIRQRPPRLPRPRPRPYQGPRP, the “shrunken log2 fold change” value is reported as 0.00707.
For RRIRNRPPRLPRPRPRPVRHPRP, the “shrunken log2 fold change” value was -0.0637.
For RRIRFRPPRLPRPRPRPIGFPRP, the “shrunken log2 fold change” value was -0.27.
For RRIRERPPRLPRPRPRPEVKPRP, the “shrunken log2 fold change” value was -0.0524.
In the case of RRIRNRPPRLPRPRPRPMPDPRP, the “shrunken log2 fold change” value is reported as 0.259.
In the case of RRIRARPPRLPRPRPRPIQDPRP, the “shrunken log2 fold change” value is reported as 0.0826.
With RRIRARPPRLPRPRPRPGIVPRP the “shrunken log2 fold change” value was 0.174.
For RRIRKRPPRLPRPRPRPTPRPRP, the “shrunken log2 fold change” value was 1.05.
RRIRYRPPRLPRPRPRPFQLPRP was tested, and the “shrunken log2 fold change” value was -0.0518.
For RRIRPRPPRLPRPRPRPYVVPRP, the “shrunken log2 fold change” value was -0.307.
In the case of RRIRERPPRLPRPRPRPTNNPRP, the “shrunken log2 fold change” value is reported as -0.591.
For RRIRVRPPRLPRPRPRPRQAPRP, the “shrunken log2 fold change” value was 0.224.
For RRIRRRPPRLPRPRPRPPPLPRP, the “shrunken log2 fold change” value was 0.963.
For RRIRLRPPRLPRPRPRPMEPPRP, the “shrunken log2 fold change” value was 0.101.
With RRIRLRPPRLPRPRPRPAMKPRP the “shrunken log2 fold change” value was -0.0543.
In the case of RRIRDRPPRLPRPRPRPVKDPRP, the “shrunken log2 fold change” value is reported as -0.173.
With RRIRERPPRLPRPRPRPQMQPRP the “shrunken log2 fold change” value was -0.173.
In the case of RRIRARPPRLPRPRPRPSACPRP, the “shrunken log2 fold change” value is reported as 0.359.
